Source: article PMC10810279, “Biophysical and structural characterization of a multifunctional viral genome packaging motor” (Nucleic Acids Research, 2023)
Values joined by “and” are separate entries in the source; they are usually repeats but may differ in a detail not shown here. Identical values can stand only once.

T1: lambda terminase holoenzyme ring (TerL•TerS2)5 (Escherichia phage Lambda, UniProt P03708)
T1 construct: gene A; assembled ring of five TerL•TerS2 protomers; with Terminase small subunit
T1 sequence (P03708 1-641): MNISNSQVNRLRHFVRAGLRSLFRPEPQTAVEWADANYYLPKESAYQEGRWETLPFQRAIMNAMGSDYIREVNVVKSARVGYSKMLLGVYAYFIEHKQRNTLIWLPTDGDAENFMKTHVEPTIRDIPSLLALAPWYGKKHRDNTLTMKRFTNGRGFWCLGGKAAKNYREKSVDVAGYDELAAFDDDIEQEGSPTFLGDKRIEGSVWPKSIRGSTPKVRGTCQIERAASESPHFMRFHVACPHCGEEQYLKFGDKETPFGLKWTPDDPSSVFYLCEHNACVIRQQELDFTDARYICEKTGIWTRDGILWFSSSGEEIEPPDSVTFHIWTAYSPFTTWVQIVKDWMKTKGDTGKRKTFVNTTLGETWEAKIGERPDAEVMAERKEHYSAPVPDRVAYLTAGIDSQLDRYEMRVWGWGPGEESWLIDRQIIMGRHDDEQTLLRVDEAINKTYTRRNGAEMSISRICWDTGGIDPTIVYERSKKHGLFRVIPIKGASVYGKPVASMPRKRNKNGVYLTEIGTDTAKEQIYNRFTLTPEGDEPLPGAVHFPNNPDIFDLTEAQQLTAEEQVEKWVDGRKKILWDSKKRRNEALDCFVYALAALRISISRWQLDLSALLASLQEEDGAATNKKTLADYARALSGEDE
T1 sequence (P03707 1-181 partner): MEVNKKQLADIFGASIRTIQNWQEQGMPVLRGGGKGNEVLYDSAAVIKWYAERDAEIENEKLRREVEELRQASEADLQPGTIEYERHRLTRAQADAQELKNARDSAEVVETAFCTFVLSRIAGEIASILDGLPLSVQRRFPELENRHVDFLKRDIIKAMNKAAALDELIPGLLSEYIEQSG

B1: bacteriophage λ terminase large subunit (TerL) (enzyme, UniProt P03708 1-641, looked up)
chain: T1 sequence (P03708 1-641)
notes: large catalytic terminase subunit TerL of bacteriophage lambda; Never tested as an isolated subunit, only as part of the protomer or ring; also called large terminase
B2: bacteriophage λ terminase small subunit (TerS) (natural protein, UniProt P03707 1-181, looked up)
chain: T1 sequence (P03707 1-181 partner)
notes: small DNA recognition terminase subunit TerS of bacteriophage lambda; Never tested as an isolated subunit, only as part of the protomer or ring; also called small terminase

Key:
[1] = biological target: T1, lambda terminase holoenzyme ring (TerL•TerS2)5; test: ATPase assay, […] TLC, phosphorimaging; assay type: biochemical; details: labelled compound; 10 nM terminase; 50 mM Tris-HCl pH 9, 10 mM MgCl2, 60 mM NaCl, 2 mM spermidine, 37 °C
[2] = biological target: T1, lambda terminase holoenzyme ring (TerL•TerS2)5; test: cryoEM 2D class averages (conformational change); assay type: binding; details: 1 mM ATPγS; no DNA mentioned; no 3D reconstruction
[3] = biological target: bacteriophage λ terminase protomer (TerL•TerS2) (bacteriophage λ) (UniProt P03708); test: cryo-EM 2D class averages; purified terminase ring at 0.5 mg/ml, no ligand (apo); no 3D reconstruction
[4] = biological target: bacteriophage λ terminase protomer (TerL•TerS2) (bacteriophage λ) (UniProt P03708); test: native MS; charge detection mass spectrometry (CDMS) of the assembled ring, 300 mM ammonium acetate pH 8.34
[5] = biological target: bacteriophage λ terminase protomer (TerL•TerS2) (bacteriophage λ) (UniProt P03708); test: cryo-EM 2D class averages; purified terminase ring at 0.5 mg/ml with 1 mM ATPγS; no 3D reconstruction
[6] = biological target: bacteriophage λ terminase protomer (TerL•TerS2) (bacteriophage λ) (UniProt P03708); test: SAXS; assembled terminase ring at 0.25, 0.50 and 0.80 mg/ml, 5°C; mass from the Porod-invariant volume; protomers to ring
[7] = biological target: the molecule itself; test: cryo-EM 2D class averages; purified terminase ring at 0.5 mg/ml with 1 mM ATPγS; no 3D reconstruction
[8] = biological target: B1; test: native MS; charge detection mass spectrometry (CDMS) of the terminase protomer, 200 mM ammonium acetate; details: both partners purified

Nc1ncnc2c1ncn2[C@@H]1O[C@H](COP(=O)(O)OP(=O)(O)OP(=O)(O)O)[C@@H](O)[C@H]1O [ATP]
Km [1]: 495 ± 70 nM

Nc1ncnc2c1ncn2[C@@H]1O[C@H](COP(=O)(O)OP(=O)(O)OP(O)(O)=S)[C@@H](O)[C@H]1O [ATPγS]
cryoEM 2D class averages (conformational change) [2]: we imaged the λ terminase ring bound to ATP-γS, a poorly hydrolyzed ATP analog

bacteriophage λ terminase protomer (TerL•TerS2) (from UniProt P03708 1-641; P03707 1-181) (complex)
stoichiometry N [3]: 5
stoichiometry N [4]: 5 protomers
stoichiometry N [5]: 5
stoichiometry N [6]: 5.1 and 4.2 and 4.4

B1
binding result [7]: binds

B2
binding result [8]: binds
